Series [1] concerns the target T1, CDT1^ΔN (N-terminally truncated CDT1^158-546) (human, UniProt Q9H211 158-546).
T1 construct: CDT1, human, UniProt Q9H211, residues 158-546 (lacks the unstructured N-terminus); Plasmid is in Supplementary Data 1; The His tag serves for capture on the NTA chip in the SPR with peptides; also called standard CDT1 construct; source: E. coli BL21 (DE3), purified (HisTrap Excel, POROS HS, Superdex 200); not shown: His6, N-terminal, kept
T1 sequence (looked up): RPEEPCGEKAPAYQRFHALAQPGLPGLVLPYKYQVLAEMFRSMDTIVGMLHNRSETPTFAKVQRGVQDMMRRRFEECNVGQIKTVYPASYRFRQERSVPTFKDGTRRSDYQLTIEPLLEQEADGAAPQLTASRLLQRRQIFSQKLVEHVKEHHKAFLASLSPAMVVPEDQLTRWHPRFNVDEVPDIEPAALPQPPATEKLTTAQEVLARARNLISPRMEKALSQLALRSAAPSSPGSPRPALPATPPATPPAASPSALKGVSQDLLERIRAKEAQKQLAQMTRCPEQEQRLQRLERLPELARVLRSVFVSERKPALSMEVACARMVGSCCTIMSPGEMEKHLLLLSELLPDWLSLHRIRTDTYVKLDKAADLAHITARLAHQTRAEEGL
The experiment in a line: SPR; CDT1^ΔN with Gem^LINK; steady-state 1:1 binding model; chip and cycle format not stated for Gem^LINK; 25 °C; 10 mM HEPES, 500 mM NaCl, 50 µM EDTA, 1 mM TCEP-HCl, 0.05% Tween-20, pH 8.0. As to conditions: both partners purified. In general terms: Surface plasmon resonance follows binding to a sensor surface in real time, without labels.

For series [2], the target named is T2, CDT1^ΔN (N-terminally truncated CDT1^158-546) (human, UniProt Q9H211 158-546).
T2 chain: T1 sequence (looked up)
The series can be described thus: SPR.

Series [3] concerns the molecule itself. The experiment in a line: SEC-MALS; Superdex 200 Increase 10/300 GL; peptides 500–1000 µM, 100 µL injected; 10 mM HEPES, 150 mM NaCl, 1 mM TCEP-HCl, pH 7.5; 0.25 mL/min.
Series [4] concerns the target T1, CDT1^ΔN (N-terminally truncated …). The series can be described thus: SPR; multi-cycle; CDT1^ΔN captured by its N-terminal His tag on an NTA chip; geminin peptides 0.49–250 nM (two-fold steps); 25 °C; 10 mM HEPES, 500 mM NaCl, 50 µM EDTA, 1 mM TCEP-HCl, 0.05% Tween-20, pH 8.0; 1:1 kinetic model of analyte dimer:CDT1, steady-state 1:1 model for Gem^96–160 and Gem^102–160. As to conditions: both partners purified.

The target in series [5] is T2, CDT1^ΔN (N-terminally truncated …). The series can be described thus: SPR.
The target is the same in series [6]. The series can be described thus: SPR.
Series [7] has the same target. The experiment in a line: SPR.
Series [8] has the same target. The experiment in a line: SPR.

Like-named read-outs stand apart in the source and are kept apart here.

The results in this text go back to article PMC12695944, “Geminin inhibits DNA replication licensing by sterically blocking CDT1-MCM2 interactions” (Nature Communications, 2025).

B1: Gem^LINK (geminin with a short glycine linker between the two CDT1 interaction interfaces) (natural protein)
chain: MNPSMKQKQEEIKENIKNSSVPRRTLKMIQPSASGSLVGRENELSAGLSKRKHRNDHLTSTTSSPGVIVPESSENKNLGGVTQESFDLMIGGGGGKENPSSQYWKEVAEKRRKALYEALKENEKLHKEIEQKDNEIARLKKENKELAEVAEHVQYMAELIERLNGEPLDNFESLDNQEFDSEEETVEDSLVEDSEIGTCAEGTVSSSTDAKPCI
modifications: Full-length geminin with a 5x Gly insertion between I90 and K91 (K96 in post-insertion numbering; no deletion, since mutant residues 76-165 correspond to WT 76-160). Homodimer assumed as for wild …
Usually Kd stands for the free concentration of one partner at which half of the binding sites on the other are occupied at equilibrium, for simple one-to-one binding. Read a high Kd as a looser complex. In series [1], B1 gave a dissociation constant (Kd) of 38 nM.

B2: Gem^96–160 (geminin coiled-coil peptide) (peptide, UniProt O75496 96-160, looked up)
peptide: Ac-SQYWKEVAEKRRKALYEALKENEKLHKEIEQKDNEIARLKKENKELAEVAEHVQYMAELIERLNG-NH2
notes: geminin, human, UniProt O75496, residues 96-160 (the full coiled-coil); Made on Rink amide resin; source: synthetic peptide
The term stoichiometry N denotes the number of molecules, sites or subunits per partner or assembly. As for B2, the Kd in series [2] turned out to be 21 nM. Moreover, the “stoichiometry N” value in series [3] is 2. In series [4], the binding result is “binds”.

B3: Gem^76–145 (chemically synthesised peptide) (peptide, UniProt O75496 76-145, looked up)
peptide: Ac-KNLGGVTQESFDLMIKENPSSQYWKEVAEKRRKALYEALKENEKLHKEIEQKDNEIARLKKENKELAEVA-NH2
notes: geminin, human, UniProt O75496, residues 76-145; Made on Rink amide resin; The recombinant recGem^76–145 is another molecule, used only in licensing assays; source: synthetic peptide
As a reminder, the koff is the rate constant with which the complex falls apart. A higher koff goes with fast dissociation. Molecule B3 came in with a koff in series [5] of 0.0034 s⁻¹. In addition, in series [3], the “stoichiometry N” value is 2. In addition, binding in series [4] was put at a Kd of 5.7 nM.

B4: Gem^76–140 (peptide, UniProt O75496 76-140, looked up)
peptide: Ac-KNLGGVTQESFDLMIKENPSSQYWKEVAEKRRKALYEALKENEKLHKEIEQKDNEIARLKKENKE-NH2
notes: geminin, human, UniProt O75496, residues 76-140; Made on Rink amide resin; source: synthetic peptide
On to B4, for which, in series [6], the dissociation constant Kd is 11 nM. Besides, the koff in series [7] is 0.0033 s⁻¹. For the same molecule, the “stoichiometry N” value in series [3] is 2. Besides, in series [4], the binding result is listed as “binds”.

B5: Gem^102–160 (peptide, UniProt O75496 102-160, looked up)
peptide: Ac-VAEKRRKALYEALKENEKLHKEIEQKDNEIARLKKENKELAEVAEHVQYMAELIERLNG-NH2
notes: geminin, human, UniProt O75496, residues 102-160; Made on Rink amide resin; source: synthetic peptide
As for B5, the “stoichiometry N” value in series [3] was determined as 2. The molecule further had a dissociation constant Kd in series [4] of 2800 nM.

B6: Gem^96–135 (minimal CDT1-binding peptide) (peptide, UniProt O75496 96-135, looked up)
peptide: Ac-SQYWKEVAEKRRKALYEALKENEKLHKEIEQKDNEIARLK-NH2
notes: Made on Rink amide resin; source: synthetic peptide
B6 yielded a koff in series [8] of 0.024 s⁻¹. In addition, the affinity in series [2], expressed as Kd, was 22 nM. The “stoichiometry N” value in series [3] was 2. Also, the binding result in series [4] is “binds”.

B7: Gem^76–135 (peptide, UniProt O75496 76-135, looked up)
peptide: Ac-KNLGGVTQESFDLMIKENPSSQYWKEVAEKRRKALYEALKENEKLHKEIEQKDNEIARLK-NH2
notes: as for B6
B7 came in with a dissociation constant Kd in series [6] of 7 nM. Also, the dissociation rate constant (koff) in series [7] was found to be 0.0029 s⁻¹. Also, in series [3], the “stoichiometry N” value came to 2. Besides, the binding result in series [4] is “binds”.

B8: Gem^96–145 (peptide, UniProt O75496 96-145, looked up)
peptide: Ac-SQYWKEVAEKRRKALYEALKENEKLHKEIEQKDNEIARLKKENKELAEVA-NH2
notes: geminin, human, UniProt O75496, residues 96-145; Made on Rink amide resin; source: synthetic peptide
For the molecule B8, the off-rate (koff) in series [8] is 0.031 s⁻¹. The “stoichiometry N” value in series [3] came to 2. Binding in series [4] was put at a Kd of 38 nM.

B9: Gem^96–140 (peptide, UniProt O75496 96-140, looked up)
peptide: Ac-SQYWKEVAEKRRKALYEALKENEKLHKEIEQKDNEIARLKKENKE-NH2
notes: geminin, human, UniProt O75496, residues 96-140; Made on Rink amide resin; source: synthetic peptide
B9 showed a koff in series [8] of 0.022 s⁻¹. In series [2], this molecule came in with a Kd of 32 nM. For the same molecule, in series [3], the “stoichiometry N” value was determined as 2. Also, the binding result in series [4] was “binds”.

B10: Gem^82–145 (peptide, UniProt O75496 82-145, looked up)
peptide: Ac-TQESFDLMIKENPSSQYWKEVAEKRRKALYEALKENEKLHKEIEQKDNEIARLKKENKELAEVA-NH2
notes: geminin, human, UniProt O75496, residues 82-145; Made on Rink amide resin; source: synthetic peptide
For the molecule B10, in series [5], the off-rate constant (koff) is 0.0032 s⁻¹. In series [3], the “stoichiometry N” value came out at 2. In series [4], binding was characterised by a dissociation constant (Kd) of 5.8 nM.

B11: Gem^90–145 (peptide, UniProt O75496 90-145, looked up)
peptide: Ac-IKENPSSQYWKEVAEKRRKALYEALKENEKLHKEIEQKDNEIARLKKENKELAEVA-NH2
notes: geminin, human, UniProt O75496, residues 90-145; Made on Rink amide resin; source: synthetic peptide
In turn, B11 gave a dissociation rate constant (koff) in series [5] of 0.045 s⁻¹. Moreover, in series [3], the “stoichiometry N” value is 2. Binding in series [4] was put at a Kd of 93 nM.
